Laboratory results reported in patent US20150010525A1, “Catalytic Tagging System to Study Macro-Molecular Interactions Using Engineered Ubiquitin Ligase and Ubiquitin-Like Proteins to Facilitate Substrate Identification” (THE REGENTS OF THE UNIVERSITY OF CALIFORNIA, priority 2012, published 2015).

Key:
[1] = target: T1, GST-XIAP (Homo sapiens, UniProt P98170); assay: In vitro GST pull down; assay type: binding; settings: recombinant proteins
T1 construct: made in house
Text: (§1) FIG. 12 illustrates the identification of the proteolytic form of PGAM5 as an XIAP and cIAP1 substrate in vitro. […] Overall, 15 unique peptides from PGAM5 were recovered and account for 43% of the entire protein sequence. (B) An example of LC-MS/MS spectrum from endogenous PGAM5 N-terminal peptide after subtiligase labeling and positive enrichment. A non-natural amino acid, 2-aminobutyric acid (Abu), is a designed tag showing characteristic labeling by subtiligase. (C) PGAM5 is cleaved into a truncated form in cells. Jurkat cells were transiently transfected with C-terminal Myc tagged full length PGAM5 or PGAM5 (Δ2-24). […] (D) N-terminal amino acid sequence alignment of PGAM5(Δ24) and other known evolutionarily conserved IBM sequences. Reaper, Hid, and Grim are Drosophila proteins that bind DIAP1, the Drosophila IAP. Amino acids are colored according to their chemical properties. (E) XIAP binds PGAM5(Δ24) but not the full length PGAM5. Recombinant GST fused XIAP, PGAM5(FL), and PGAM5(Δ24) were used for in vitro GST pull down experiments. (F) PGAM5(Δ24) binds to XIAP and cIAP1 independent of the RING domain. […] The resins were washed and proteins were eluted and analyzed with SDSPAGE and coomassie blue staining. […] The ubiquitination assay was performed in vitro and PGAM5 is detected with an anti-His antibody.

[2] = target: XIAP (Homo sapiens, UniProt P98170); assay: In vitro PGAM5 ubiquitination assay with XIAP; assay type: biochemical; settings: 50 nM UBE1, 200 nM UbcH5b, 700 nM XIAP, 1.5 μM PGAM5-His6
Text: as §1, with “antibody. […]” for “antibody.”

[3] = tested on: HeLa cells; assay: Cell viability by CellTiter-Glo after STS treatment; assay type: cell-based; settings: 24 hours after transfection, STS 2 hours
Description: FIG. 13 illustrates functional studies of PGAM5 in cells. (A) PGAM5(Δ24) binds XIAP and cIAP1 in vivo. On the left, HEK293 cells were cotransfected with Flag-cIAP1 and PGAM5(FL)-Myc or PGAM5(Δ24)-Myc. Total cell lysates were analyzed by immune-blotting with anti-Flag and anti-Myc antibodies (bottom two panels). Anti-Myc immune-precipitates (IP) were subjected to immunoblot analysis using anti-Myc and anti-Flag antibodies (top two panels). On the right, PGAM5(Δ24)-Myc was transiently expressed in HEK293 cells. 36 hours after transfection, cells were lysed and subjected for Immuno-precipitation with either anti-Myc antibody or an isotype control antibody (mouse IgG). Proteins in the whole cell lysate (bottom three panels) and proteins that bind to the antibody conjugated sepharose beads (top three panels) were assayed with immunoblotting. […] 24 hours after transfection, cell viability was measured by Annexin V staining. […] Error bars represent SEM calculated from triplicate experiments. […] Cell viability is then immediately measured by CellTiter-Glo luminescent assay. […] PGAM5 levels are analyzed with anti-Myc immune-blotting before STS treatment. Error bars represent SEM calculated from triplicate samples.
HeLa cells were plated in 96 well plates and transfected with either empty vector or the PGAM5 construct. […] Luminescent signals were read using a SpectraMax (Molecular Devices) plate reader.

XIAP, sequence (P98170 whole entry): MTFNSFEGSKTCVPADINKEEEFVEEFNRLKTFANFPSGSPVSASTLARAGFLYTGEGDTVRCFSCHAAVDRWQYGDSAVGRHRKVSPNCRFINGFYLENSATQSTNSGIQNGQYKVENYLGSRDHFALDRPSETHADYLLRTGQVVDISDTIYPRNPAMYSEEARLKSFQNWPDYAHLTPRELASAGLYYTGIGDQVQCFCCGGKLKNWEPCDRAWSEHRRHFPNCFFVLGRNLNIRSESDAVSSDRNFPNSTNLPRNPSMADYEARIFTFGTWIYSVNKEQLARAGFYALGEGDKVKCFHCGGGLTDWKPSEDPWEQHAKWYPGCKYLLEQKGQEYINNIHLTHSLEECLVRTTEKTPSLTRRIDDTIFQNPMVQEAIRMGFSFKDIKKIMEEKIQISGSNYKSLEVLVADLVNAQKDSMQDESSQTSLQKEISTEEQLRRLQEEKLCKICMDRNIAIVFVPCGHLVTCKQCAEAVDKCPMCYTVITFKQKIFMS
T1 sequence (P98170 whole entry): as above

ubiquitination by XIAP [2]: not the full length protein
B1: Serine/threonine-protein phosphatase PGAM5, mitochondrial: phosphoglycerate mutase family member 5, dimeric protein phosphatase (protein, UniProt Q96HS1 1-289, looked up)
chain: MAFRQALQLAACGLAGGSAAVLFSAVAVGKPRAGGDAEPRPAEPPAWAGGARPGPGVWDPNWDRREPLSLINVRKRNVESGEEELASKLDHYKAKATRHIFLIRHSQYHVDGSLEKDRTLTPLGREQAELTGLRLASLGLKFNKIVHSSMTRAIETTDIISRHLPGVCKVSTDLLREGAPIEPDPPVSHWKPEAVQYYEDGARIEAAFRNYIHRADARQEEDSYEIFICHANVIRYIVCRALQFPPEGWLRLSLNNGSITHLVIRPNGRVALRTLGDTGFMPPDKITRS
modifications: full-length
notes: phosphoglycerate mutase family member 5, dimeric protein phosphatase
binding to XIAP (pull down) [1]: not the full length PGAM5 was pulled down
sensitization to apoptosis inducer STS [3]: sensitized cells to the apoptosis inducer STS
